Columns and labels:
c-Met-Fc protein = target: T1, c-Met-Fc protein (Homo sapiens, UniProt P08581); experiment: Phage ELISA for binding to c-Met-Fc protein; details: same phage titer
T1 construct: Fc; purchased R&D
Method: Selection of phages displaying specific anti-c-Met scFv was performed by protein G dynabeads (Invitrogen). c-Met-Fc recombinant protein (R&D) was incubated with protein G dynabeads at room temperature (RT) for 1 hr. The scFv library (2×10^9 members) was subtracted non-specific binding in protein G dynabeads and subsequently incubated with c-Met-Fc immobilized dynabeads for 1 hr at 4° C. Unbound phages were removed by washing 4 times with PBST. The phages that bound to c-Met-Fc were recovered by infection with E. coli TG1 cells at 37° C. for 30 min. Part of the infected cells were serial diluted to determine titer, and the others were rescued by M13KO7 helper phage (NEB). […]
To examine the specificity and binding affinity of the three phage clones, a comparative ELISA using the same phage titer was performed. […] The three clones were assessed for binding to cell-surface c-Met by flow cytometry and immunofluorescence assay using 293T cells ectopically expressing human c-Met. […] Soluble anti-c-Met scFvs were purified from periplasmic extract of phage-infected E-coli HB2151 by protein L agarose chromatography, and then assessed by coomassie blue staining representing purified anti-c-Met scFv proteins (S1, S20 and S21) localized in vicinity of 30 kDa corresponding to protein weight marker (upper panel of FIG. 8, panel B).

[1] = target: T2, c-Met expressed on H1993 cells (Homo sapiens, UniProt P08581); experiment: Competition ELISA: phage clones inhibit HGF binding to H1993 cells; details: phage-displayed scFv; HGF binding without competitors = 100%
T2 construct: H1993 is known to express a high level of c-Met; endogenous in cells; host or cells: H1993
Method: (§1) To test whether the three anti-c-Met scFvs could inhibit HGF binding to c-Met, the human lung cancer cell line H1993 was chosen to undergo competition ELISA (Lutterbach B et al. (2007) Cancer Res 67:2081-2088). […] HGF binding to H1993 cells without competitors was considered 100%. H1993 is known to express a high level of c-Met. When H1993 cells were incubated with HGF in the presence of the phage clones, the binding of HGF to H1993 cells was diminished by more than 90% by the anti-c-Met scFv PC1. PC20 inhibited more than 50% of HGF binding to c-Met (FIG. 2, panel A). The competitive inhibition of HGF by different concentrations of soluble scFvs was also tested. Normal mouse IgG (NMIgG) was used as a negative control. HGF binding to immobilized c-Met protein without competitors was considered 100%.

[2] = target: T3, 293T cells ectopically expressing human c-Met (Homo sapiens, UniProt P08581); experiment: Phage binding to c-Met-overexpressing 293T cells (flow cytometry, immunofluorescence); assay type: cell-based; details: 293T overexpressing c-Met vs 293T; flow cytometry and immunofluorescence
T3 construct: The DNA encoding full-length c-Met was amplified by PCR; expressed in transfected cells; host or cells: 293T cells transfected with pEF-c-Met expression vector
T3 sequence (P08581 25-1408 isoform P08581-2 limits assumed): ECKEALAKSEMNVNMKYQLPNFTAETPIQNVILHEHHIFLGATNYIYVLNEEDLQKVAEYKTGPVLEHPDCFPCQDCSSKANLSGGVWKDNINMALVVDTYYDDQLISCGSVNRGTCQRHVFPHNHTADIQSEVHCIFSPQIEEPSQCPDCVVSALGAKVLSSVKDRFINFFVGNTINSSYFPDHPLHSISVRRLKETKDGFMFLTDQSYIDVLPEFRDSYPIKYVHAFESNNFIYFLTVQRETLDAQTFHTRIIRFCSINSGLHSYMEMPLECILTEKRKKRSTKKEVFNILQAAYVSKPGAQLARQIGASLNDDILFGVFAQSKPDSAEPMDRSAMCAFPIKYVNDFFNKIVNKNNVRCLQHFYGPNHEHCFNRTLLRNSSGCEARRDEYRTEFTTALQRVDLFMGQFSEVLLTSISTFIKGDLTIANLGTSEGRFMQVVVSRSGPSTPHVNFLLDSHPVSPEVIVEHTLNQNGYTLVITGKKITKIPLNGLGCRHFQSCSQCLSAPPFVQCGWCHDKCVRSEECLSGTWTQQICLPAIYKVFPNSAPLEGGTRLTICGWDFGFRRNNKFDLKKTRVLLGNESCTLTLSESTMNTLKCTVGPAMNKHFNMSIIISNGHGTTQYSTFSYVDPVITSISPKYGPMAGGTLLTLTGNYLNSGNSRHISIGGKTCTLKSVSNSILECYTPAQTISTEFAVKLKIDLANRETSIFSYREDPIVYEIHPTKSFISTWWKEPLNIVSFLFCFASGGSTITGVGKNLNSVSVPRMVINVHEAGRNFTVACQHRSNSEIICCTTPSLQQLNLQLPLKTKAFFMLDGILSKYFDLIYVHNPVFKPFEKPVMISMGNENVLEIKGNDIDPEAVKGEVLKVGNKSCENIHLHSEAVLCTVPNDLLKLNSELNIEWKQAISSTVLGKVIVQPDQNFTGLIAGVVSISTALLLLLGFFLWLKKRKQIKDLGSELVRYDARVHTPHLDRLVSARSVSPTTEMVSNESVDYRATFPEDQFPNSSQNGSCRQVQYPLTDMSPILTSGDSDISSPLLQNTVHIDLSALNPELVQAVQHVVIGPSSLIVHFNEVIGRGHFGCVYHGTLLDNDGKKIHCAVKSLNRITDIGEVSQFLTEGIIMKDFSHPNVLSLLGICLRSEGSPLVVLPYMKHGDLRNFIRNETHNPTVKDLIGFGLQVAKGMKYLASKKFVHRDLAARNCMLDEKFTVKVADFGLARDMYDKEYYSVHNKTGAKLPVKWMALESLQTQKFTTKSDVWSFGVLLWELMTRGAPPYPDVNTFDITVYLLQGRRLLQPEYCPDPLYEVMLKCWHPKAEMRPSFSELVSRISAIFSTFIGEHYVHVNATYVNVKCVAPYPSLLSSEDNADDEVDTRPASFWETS
Method: For immunofluorescence staining assay, 293T cells were grown on coverslips to 80% confluence. Transfection of the cells with pEF-c-Met expression vector was performed using Lipofectamin 2000 (Invitrogen) according to manufacturer's instructions. At 48 hrs post-transfection, the cells were incubated with the selected anti-c-Met phage or control phage, by 1×10^10 phage titer for 30 min at 4° C. After the cells were washed twice with PBS, they were fixed by 4% paraformaldehyde, permeabilized with 0.1% TritonX-100 and blocked with 3% BSA. […] The fluorescence images were captured by inverted fluorescence microscope (Axiovert 200M, Zeiss).
For flow cytometry analysis, 293T cells were grown to 80% confluence and transfected with pEF-c-Met expression vector as described above. […] Analysis was performed using FACSCantoll (BD) and emission fluorescence intensity was measured by FACSDiva software (BD) to quantitatively compare their binding affinities
To examine the specificity and binding affinity of the three phage clones, a comparative ELISA using the same phage titer was performed. […] The three clones were assessed for binding to cell-surface c-Met by flow cytometry and immunofluorescence assay using 293T cells ectopically expressing human c-Met. […]

c-MetF932-Fc protein = target: T4, c-MetF932-Fc protein (Homo sapiens, UniProt P08581); experiment: Competitive ELISA: soluble scFv inhibit HGF binding to immobilized c-Met protein; details: different concentrations of soluble scFv
T4 construct: DNA fragments encoding amino acid residues 1 to 932 and 1 to 567 of c-Met were amplified by PCR; made in house; host or cells: 293T cells, transient transfection, protein G purification from supernatant
T4 sequence (P08581 25-307 limits assumed): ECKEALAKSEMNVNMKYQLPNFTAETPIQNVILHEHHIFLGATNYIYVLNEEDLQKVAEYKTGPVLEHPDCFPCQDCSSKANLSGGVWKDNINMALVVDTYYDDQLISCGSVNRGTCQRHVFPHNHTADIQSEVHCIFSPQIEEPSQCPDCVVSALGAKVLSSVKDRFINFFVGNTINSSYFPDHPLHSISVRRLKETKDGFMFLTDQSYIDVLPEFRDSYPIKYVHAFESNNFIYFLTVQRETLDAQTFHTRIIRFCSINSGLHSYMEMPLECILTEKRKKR
T4 sequence (P08581 308-932 limits assumed): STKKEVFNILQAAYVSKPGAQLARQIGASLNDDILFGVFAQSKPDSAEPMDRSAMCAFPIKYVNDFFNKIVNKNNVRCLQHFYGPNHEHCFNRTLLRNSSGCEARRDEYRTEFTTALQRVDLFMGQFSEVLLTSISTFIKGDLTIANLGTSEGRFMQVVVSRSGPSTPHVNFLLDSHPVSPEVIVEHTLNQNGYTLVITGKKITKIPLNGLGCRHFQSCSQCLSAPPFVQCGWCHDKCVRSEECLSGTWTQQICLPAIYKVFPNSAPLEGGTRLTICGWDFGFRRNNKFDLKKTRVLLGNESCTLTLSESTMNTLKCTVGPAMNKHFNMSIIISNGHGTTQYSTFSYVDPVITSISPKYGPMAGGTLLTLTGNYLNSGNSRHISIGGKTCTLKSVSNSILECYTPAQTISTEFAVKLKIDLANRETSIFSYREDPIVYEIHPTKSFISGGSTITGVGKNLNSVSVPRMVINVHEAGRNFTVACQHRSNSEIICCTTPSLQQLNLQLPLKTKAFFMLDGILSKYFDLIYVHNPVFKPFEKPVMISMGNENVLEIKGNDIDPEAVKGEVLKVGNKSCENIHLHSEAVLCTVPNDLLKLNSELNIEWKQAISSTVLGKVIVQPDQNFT
Method: To monitor inhibition effect of scFv, we coated the c-MetF932-Fc protein on a 96-well plate and blocked nonspecific binder with 3% BSA in PBS. 1 nM human HGF (R&D) plus varying concentrations of anti-c-Met scFv or normal mouse IgG were applied to the wells. The amount of HGF bound to c-Met was determined using goat anti-human HGF (R&D), following incubation of HRP-labeled mouse anti-goat IgG (Jackson ImmunoResearch) and OPD substrate (Sigma) plus H2O2. The absorbance was measured with 490 nm using a microplate reader. Inhibition percentage was calculated by the following equation: [(the absorbance of HGF bound without competitor)−(the absorbance of HGF bound with competitor)]/(the absorbance of HGF bound without competitor)×100%.
as §1

c-Met932-Fc protein = target: T5, c-Met932-Fc protein (Homo sapiens, UniProt P08581); experiment: Binding kinetics of anti-c-Met scFv by SPR (BIAcore)
T5 construct: DNA fragments encoding amino acid residues 1 to 932 and 1 to 567 of c-Met were amplified by PCR; made in house; host or cells: 293T cells, transient transfection, protein G purification from supernatant
T5 sequence (P08581 25-307): as the sequence (P08581 25-307 limits assumed) above
T5 sequence (P08581 308-932): as the sequence (P08581 308-932 limits assumed) above
Method: The affinity and kinetics of anti-c-Met scFv were measured by SRP in BIAcore X (GE healthcare). In BIAcore flowcell, 30 μg/ml of c-MetF932-Fc protein was coupled to EDC- and NHS-activated CM5 sensor chip followed by blocking with ethanolamine according to manufacturer's directions. Associated and dissociated phases were monitored for 3 and 5 min, respectively, under continuous flow of 30 μl/min using scFv concentrations ranging 5 to 200 nM. Regeneration was performed by injection of regenerate buffer (0.2 M NaCl, 10 mM glycine, pH 2.7). To determine binding constants, the sensorgrams were fit globally to a sample 1:1 interaction model using BIAevaluation software (GE healthcare).
Binding kinetic constants (Kon and Koff) and affinity of each soluble scFv for c-Met932-Fc protein were measured by Surface Plasmon Resonance (SPR).
Kon and Koff were measured by SRP in a BIAcore using purified scFvs, and the Kd was calculated by BIAevaluation software.

c-Met567-Fc protein = target: T6, c-Met567-Fc protein (Homo sapiens, UniProt P08581); experiment: Epitope ELISA on c-Met932-Fc and c-Met567-Fc; assay type: binding; details: immobilized recombinant proteins
T6 construct: DNA fragments encoding amino acid residues 1 to 932 and 1 to 567 of c-Met were amplified by PCR; made in house; host or cells: 293T cells, transient transfection, protein G purification from supernatant
T6 sequence (P08581 25-567): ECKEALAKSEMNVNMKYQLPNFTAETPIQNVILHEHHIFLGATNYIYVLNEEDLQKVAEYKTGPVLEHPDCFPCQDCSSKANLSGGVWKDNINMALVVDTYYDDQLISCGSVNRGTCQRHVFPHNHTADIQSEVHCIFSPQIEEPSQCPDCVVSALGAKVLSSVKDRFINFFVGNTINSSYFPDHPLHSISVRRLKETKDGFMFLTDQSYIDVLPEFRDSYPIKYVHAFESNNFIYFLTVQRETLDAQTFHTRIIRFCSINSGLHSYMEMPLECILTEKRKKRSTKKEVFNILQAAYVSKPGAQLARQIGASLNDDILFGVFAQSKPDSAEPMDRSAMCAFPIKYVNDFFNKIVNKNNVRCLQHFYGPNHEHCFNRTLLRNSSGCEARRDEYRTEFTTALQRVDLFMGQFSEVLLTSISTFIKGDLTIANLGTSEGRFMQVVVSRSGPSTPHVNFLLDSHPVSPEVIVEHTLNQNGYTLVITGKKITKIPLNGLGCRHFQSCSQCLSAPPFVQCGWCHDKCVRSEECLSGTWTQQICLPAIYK
Method: Therefore, binding epitopes of anti-c-Met scFvs localized within HGF binding domain of c-Met were investigated. The binding ability of anti-c-Met scFvs was examined for c-Met932-Fc protein including whole extracellular domain of c-Met, and c-Met567-Fc protein containing Sema and PSI domain, both of which have been defined as HGF binding regions (FIG. 2, panel C). The c-Met recombinant proteins were immobilized on titer wells, and incubated with anti-c-Met scFvs. Anti-c-Met polyclonal antibody and anti-E tag antibody was used as a positive and negative control, respectively. […] The binding intensity of S1 for c-Met932-Fc was similar to that for c-Met567-Fc.

[3] = purified scFv, c-MetF932-Fc on CM5 chip

T1 sequence (P08581 with tags, fused parts or gaps limits assumed): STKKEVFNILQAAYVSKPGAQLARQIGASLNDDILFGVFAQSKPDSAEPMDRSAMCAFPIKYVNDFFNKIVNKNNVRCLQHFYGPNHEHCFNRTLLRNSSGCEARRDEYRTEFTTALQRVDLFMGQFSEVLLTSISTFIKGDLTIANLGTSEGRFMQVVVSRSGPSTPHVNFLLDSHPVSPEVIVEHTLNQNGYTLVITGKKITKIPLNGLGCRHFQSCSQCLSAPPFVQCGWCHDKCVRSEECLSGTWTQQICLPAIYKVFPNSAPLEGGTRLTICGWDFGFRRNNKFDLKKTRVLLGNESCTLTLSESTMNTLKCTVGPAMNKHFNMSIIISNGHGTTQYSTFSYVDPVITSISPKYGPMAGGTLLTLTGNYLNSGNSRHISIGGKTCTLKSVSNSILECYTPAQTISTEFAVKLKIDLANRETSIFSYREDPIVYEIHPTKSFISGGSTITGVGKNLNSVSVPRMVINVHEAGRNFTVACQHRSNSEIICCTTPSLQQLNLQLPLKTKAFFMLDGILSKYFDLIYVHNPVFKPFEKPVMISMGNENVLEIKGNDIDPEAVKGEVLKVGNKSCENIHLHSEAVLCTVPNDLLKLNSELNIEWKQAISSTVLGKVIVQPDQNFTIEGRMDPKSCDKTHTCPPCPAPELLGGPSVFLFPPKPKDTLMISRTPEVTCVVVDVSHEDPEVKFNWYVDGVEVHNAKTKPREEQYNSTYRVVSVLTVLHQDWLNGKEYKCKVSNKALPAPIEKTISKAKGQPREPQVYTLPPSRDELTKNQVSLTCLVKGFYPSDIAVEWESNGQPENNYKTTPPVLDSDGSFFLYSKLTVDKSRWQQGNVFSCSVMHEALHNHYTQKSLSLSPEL
T1 sequence (P08581 25-307 limits assumed): as the sequence (P08581 25-307 limits assumed) above

B1: PC1: phage-displayed anti-c-Met scFv, phage clone 1 (protein)
scFv: MAQVQLQQSGPGLVKPSQTLSLTCDISGDSVSSNSAAWNWIRQSPSRGLEWLGRTYYRSRWYNEYAVSVRGRISINAETSKNQFSLQLNSVTPEDTAIYYCARAGFCSGGNCYPGSEDAFDLWGQGTMVTVGGGGSGGGGSGGGGSDVVMTQSPPSLSVSVGDRVTITCRASQDITNDLNWYQQKPGKAPQLLIYHASELETGVPSRFSGSGFGTDFTLTISSLQPADIATYYCQQYDDLPLTFGGGTKVEIKR
modifications: left off: large carriers
B1 was tested, and the “c-Met binding affinity in comparative ELISA” value (c-Met-Fc protein) was “stronger c-Met binding affinity than either PC20 or PC21”, the “Inhibition of HGF binding to H1993 cells” value [1] was “more than 90%” and the “Binding to cellular c-Met on 293T cells” value [2] was “higher than that of PC20 and PC21”.

B2: S21: soluble anti-c-Met scFv corresponding to phage clone PC21; VH/VL sequences in Table 1 (protein)
scFv: MAEVQLVESGPGLVKPSGTLSLKCDASAISMDSNYWWSWLRQPPGKGLEWIGEISHSGSTDYNPSLKSRATISIDKSKKQFFLRLKSVTAADTAVYYCAGLLSPLDAFDEWGQGTMVTVGGGGSGGGGSGGGGSDIQMTQSPSSLSASVGDRVTITCRASQRVATYLNWYQQKPGKAPNLLIYEASSLQSGVPSRFSGRRSGTDFTLTISSLQPEDFATYYCQQSYNTPYTFGQGTRLEIKR
modifications: left off: small tags and cut ends
For B2, the “Inhibition of binding activity of HGF to c-Met” value (c-MetF932-Fc protein) was “only slightly inhibited”, the Kd (c-Met932-Fc protein; purified scFv 5 to 200 nM, c-MetF932-Fc coupled to CM5 chip, Kd calculated by BIAevaluation software) was 14.9 nM and the Koff (c-Met932-Fc protein; [3]) was 0.00389 s⁻¹. The Kon (c-Met932-Fc protein; [3]) was 261000 M⁻¹ s⁻¹ and the “Binding to c-Met567-Fc compared to c-Met932-Fc” value (c-Met567-Fc protein) was “dramatically decreased”.

Reference: patent publication US9150655B2, “Anti-C-met antibody and methods of use thereof” (ACADEMIA SINICA, priority 2010, dated 2015)
